Blank lines part the entries; values can stand above or below the molecule they belong to.
Key:
[1] = target: L-phenylserine dehydrogenase (ORF3) from Pseudomonas syringae NK-15 (Pseudomonas syringae NK-15); test: SEC; HPLC gel filtration on a TSK-GEL G3000SW column (0.75 x 60 cm) at room temperature, 0.1 M potassium phosphate buffer (pH 7.0) with 0.2 M NaCl, 0.7 ml/min; native mass 98 kDa against a subunit of 27 kDa by SDS-PAGE
[2] = substrate: NC(=O)c1ccc[n+]([C@@H]2O[C@H](COP(=O)(O)OP(=O)(O)OC[C@H]3O[C@@H](n4cnc5c(N)ncnc54)[C@H](O)[C@@H]3O)[C@@H](O)[C@H]2O)c1; test: purified protein; type: biochemical, Pseudomonas syringae; details: DL-threo-β-phenylserine as co-substrate, 0.2 M glycine-KCl-KOH pH 10.5, 30°C (standard assay), varied: cofactor
[3] = substrate: NC(C(=O)O)C(O)c1ccccc1; test: purified protein; type: biochemical, Pseudomonas syringae; details: NAD+ as co-substrate, 0.2 M glycine-KCl-KOH pH 10.5, 30°C (standard assay), racemic DL-threo substrate

stoichiometry N [1]: 4
Molecule: L-phenylserine dehydrogenase (ORF3) from Pseudomonas syringae NK-15 (enzyme)

B1: L-phenylserine dehydrogenase (ORF3; L-PSDH) (Pseudomonas syringae) (protein)
chain: MSFPVCLVTGAATGIGAATALRFARDGWGVAINNFDDSTRADAERVAAQCREAGAQTLVIDADVGDDGACRRMVEQVAAQWGRIDALVNSAGTTRVIPHSDFEAIDPDEFERIYRVNLIGMFQMTRAATPLLRESFCPGHFASVLHVSSLASLYGTGLHPAYAASKGAVNSLTLSLARNLAPLVRVNAIAPGMVDDGLLRRVLGDEADGRVVESMRENAPLKRVSQPAEIAELAWFLAAHAPAMTGQVLAIENGLLLNT
notes: 98 kDa native, probably homotetramer; AB499092 is the 9,246-bp operon entry, which also holds D-phenylserine dehydrogenase (orf5)
Km [2]: 2.1 mM | Km [3]: 59 mM

Source: PMC2963168, “Identification, Cloning, and Characterization of L-Phenylserine Dehydrogenase from Pseudomonas syringae NK-15” (Enzyme Research, 2010)
